Earlier results on one substance are cited in paper PMC6929323.

The term Kd denotes the constant that tells how readily two partners part at equilibrium.

The data set addresses UFD1L-NPLOC4 (Homo sapiens) (UniProt Q92890). Put plainly: ITC.
UniProt Q92890, sequence (Q92890 whole entry, chain 1 of 2): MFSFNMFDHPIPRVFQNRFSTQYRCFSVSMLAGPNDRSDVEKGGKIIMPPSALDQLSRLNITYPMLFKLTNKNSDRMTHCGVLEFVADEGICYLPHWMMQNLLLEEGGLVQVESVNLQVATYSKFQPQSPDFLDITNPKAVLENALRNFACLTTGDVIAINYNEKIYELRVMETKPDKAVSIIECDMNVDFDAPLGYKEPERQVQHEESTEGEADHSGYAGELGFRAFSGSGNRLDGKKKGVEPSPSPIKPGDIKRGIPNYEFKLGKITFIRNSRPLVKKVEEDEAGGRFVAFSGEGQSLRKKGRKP
UniProt Q92890, sequence (Q8TAT6 2-608, chain 2 of 2, further chain): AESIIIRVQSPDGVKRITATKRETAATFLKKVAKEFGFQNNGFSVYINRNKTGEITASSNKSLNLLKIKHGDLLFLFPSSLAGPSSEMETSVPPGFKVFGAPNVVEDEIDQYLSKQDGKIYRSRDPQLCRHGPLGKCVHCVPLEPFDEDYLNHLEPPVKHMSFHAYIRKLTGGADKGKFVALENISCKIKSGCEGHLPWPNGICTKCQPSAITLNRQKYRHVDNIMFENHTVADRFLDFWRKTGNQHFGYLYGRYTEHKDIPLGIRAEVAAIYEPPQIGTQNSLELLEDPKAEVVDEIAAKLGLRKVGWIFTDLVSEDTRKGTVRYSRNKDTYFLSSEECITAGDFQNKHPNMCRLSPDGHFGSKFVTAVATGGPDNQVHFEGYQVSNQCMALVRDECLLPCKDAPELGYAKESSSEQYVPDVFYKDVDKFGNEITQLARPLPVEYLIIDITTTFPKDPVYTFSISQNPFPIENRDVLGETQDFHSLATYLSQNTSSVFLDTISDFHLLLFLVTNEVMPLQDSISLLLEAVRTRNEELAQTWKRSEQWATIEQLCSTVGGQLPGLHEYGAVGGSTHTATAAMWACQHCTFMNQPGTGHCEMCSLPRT

In the case of p97 (from UniProt P55072), the Kd is 1700 nM.
